{"source": "patent US20110059076A1", "about": "“HUMAN SERUM ALBUMIN LINKERS AND CONJUGATES THEREOF” (priority 2008, published 2011)", "key": {"[1]": {"test_system": "Ki67 in BT474-M3 breast tumor xenografts", "test": "Ki67 staining of xenograft tumors", "type": "in vivo", "settings": "30 mg/kg every 3 days, 4 doses"}, "[2]": {"test_system": "signaling proteins in BT474 breast cancer cells", "test": "Western blot of signaling proteins in BT474 cells", "type": "cell-based", "settings": "BT474, dose range 24 hours, heregulin stimulation", "description": "Levels of pErbB2, pErbB3, pErk and pAKT and their corresponding total protein levels are determined on cell lysates by Western blot analysis."}, "[3]": {"test_system": "Calu-3 (human lung adenocarcinoma) xenograft", "test": "Calu-3 xenograft model", "type": "in vivo, mice", "settings": "Calu-3, 30 mg/kg every 3 days", "description": "(§1) Calu-3 (human lung adenocarcinoma; FIG. 17A), SKOV-3 (human ovarian adenocarcinoma; FIG. 17B), NCI-N87 (human gastric carcinoma; FIG. 17C), ACHN (human kidney adenocarcinoma; FIG. 17D), and MDA-MB-361 (human breast adenocarcinoma; FIG. 17E) xenograft model are shown."}, "[4]": {"test_system": "10 tumor xenograft models", "test": "activity in 10 tumor xenograft models versus ErbB2 expression", "type": "in vivo", "settings": "low to high ErbB2"}, "[5]": {"test_system": "BT-474-M3 shPTEN xenografts", "test": "BT-474-M3 shPTEN xenografts (reduced PTEN activity)", "type": "in vivo, nude mice", "settings": "30 mg/kg B2B3-1 every 3 days or 10 mg/kg trastuzumab every week, i.p.", "protocol": "ShRNA technology is applied to knock out the activity of the tumor suppressor gene phosphatase and tensin homolog (PTEN) in BT-474-M3 breast cancer cells. Briefly, cultured BT-474-M3 cells are transfected with shPTEN or shControl RNA by retroviral transfection. Transfected cells with reduced PTEN are selected using FACS and subsequently injected subcutaneously into the right flank of nude mice to establish xenograft tumors. Cells transfected with a control vector are injected into the left flank of the same mouse. […] All injections are done i.p."}, "[6]": {"test_system": "p27^kip1 in BT474-M3 breast tumor cells", "test": "p27kip1 sub-cellular location by immunofluorescence", "type": "cell-based", "settings": "1 μM, 6 hours", "description": "The sub-cellular location of p27^kip1 is assessed using immunofluorescence techniques."}, "[7]": {"target": "T1, recombinant extracellular domain of ErbB3 (Homo sapiens, UniProt P21860)", "T1 construct": "Plates are coated with the recombinant extracellular domain of either ErbB2 or ErbB3", "test": "specificity competition ELISA on ErbB3-coated plates", "settings": "half-maximal binding concentration of B2B3-1", "description": "Plates are coated with the recombinant extracellular domain of either ErbB2 or ErbB3."}, "[8]": {"test_system": "SKOV-3 (human ovarian adenocarcinoma) xenograft", "test": "SKOV-3 xenograft model", "type": "in vivo, mice", "settings": "SKOV-3, 30 mg/kg every 3 days", "description": "as §1"}, "[9]": {"test": "single dose pharmacokinetics in nu/nu mice", "type": "in vivo", "settings": "for AUC / Clearance / T½β: Mouse (single dose)", "protocol": "Blood is collected pre-dose and at 0.5, 4, 8, 24, 48, 72, and 120 hours post dose. Three mice are used for each time point. […] The HSA ELISA utilizes a polyclonal-anti HSA capture antibody and a HRP-conjugated polyclonal anti-HSA detection antibody."}, "[10]": {"test_system": "ErbB3 phosphorylation in BT-474-M3 cells", "test": "HRG-induced ErbB3 phosphorylation ELISA in BT-474-M3", "type": "cell-based, human", "settings": "BT-474-M3, dose titration 24 hours, 5 nM HRG 1β EGF domain 10 minutes", "description": "Except as noted, ELISA reagents for total and phospho-ErbB3 ELISAs are purchased from R&D Systems as DUOSET kits. 96-well NUNC MAXISORB plates are coated with 50 μl of an antibody and incubated overnight at room temperature. Next morning, plates are washed 3 times with 1000 μl/well in a BIOTEK plate washer with Dulbecco's phosphate buffered saline without calcium or magnesium (PBS) with added Tween detergent (PBST) (0.05% Tween-20). […] The plates are washed 3 times with 1000 μl/well in the BIOTEK plate washer with PBST. Cells are grown at 37° C. and 5% carbon dioxide, washed with cold PBS, then harvested with mammalian protein extract (MPER) lysis buffer (Pierce, 78505) to which 150 mM NaCl, 5 mM sodium pyrophosphate, 10 uM bpV (phen), 50uM phenylarsine, 1 mM sodium orthovanadate, and protease inhibitor cocktail (Sigma, P2714) is added. 50 μL of cell lysates and standards diluted in 50% Lysis buffer and 1% BSA are used in duplicates for further processing. Samples are incubated for 2hrs at 4° C. on a plate shaker and washed as before. About 50 μl of a detection antibody diluted in 2% BSA, PBST is added and incubated for about 1-2 hrs at room temperature. […] About 50 μL of SUPERSIGNAL ELISA Pico (Thermo Scientific) substrate is added and the plate is read using a FUSION plate reader. […]"}, "[11]": {"target": "T2, ErbB2-associated complexes in BT474 breast cancer cells (Homo sapiens, UniProt P04626+P21860)", "T2 construct": "endogenous in cells; host or cells: BT474 breast cancer cells", "test": "immunoprecipitation-Western blot of ErbB2-associated complexes", "type": "cell-based", "settings": "BT474, dose range 24 hours, heregulin stimulation", "description": "ErbB2-associated complexes are isolated from cell lysates using an anti-ErbB2 antibody followed by Western blot analysis to detect pErbB2 and pErbB3 and the corresponding total protein levels."}, "[12]": {"test_system": "NCI-N87 (human gastric carcinoma) xenograft", "test": "NCI-N87 xenograft model", "type": "in vivo, mice", "settings": "NCI-N87, 30 mg/kg every 3 days", "description": "as §1"}, "[13]": {"test_system": "Cyclin D1 in BT-474-M3 cells", "test": "Cyclin D1 Western blot", "type": "cell-based", "settings": "72 hours", "description": "The cytoskeleton protein vinculin is used as a protein loading control in this experiment."}, "ErbB3": {"target": "ErbB3 (Homo sapiens, UniProt P04626+P21860)", "test": "inhibition of ligand-induced phosphorylation of ErbB3 (general statement)", "type": "cell-based"}, "[14]": {"test_system": "wild type ADRr xenografts", "test": "wild type ADRr breast cancer xenograft model", "type": "in vivo, nude mice", "settings": "30 mg/kg every 3 days"}, "[15]": {"test_system": "p27^kip1 in BT474-M3 breast tumor xenografts", "test": "p27kip1 staining of xenograft tumors", "type": "in vivo", "settings": "30 mg/kg every 3 days, 4 doses"}, "[16]": {"test_system": "MDA-MB-361 (human breast adenocarcinoma) xenograft", "test": "MDA-MB-361 xenograft model", "type": "in vivo, mice", "settings": "MDA-MB-361, 30 mg/kg every 3 days", "description": "as §1"}, "[17]": {"test_system": "pAKT in BT-474-M3 xenografts that have reduced PTEN activity", "test": "pAKT Western blot of PTEN deficient BT-474-M3 xenograft tumors", "type": "in vivo", "settings": "30 mg/kg B2B3-1 every 3 days or 10 mg/kg trastuzumab weekly", "quoted_text": "Equal quantities of protein are loaded in each lane and total protein levels are controlled by probing for PCNA."}}, "note": "Values joined by “and” are separate entries in the source; they are usually repeats but may differ in a detail not shown here. Identical values can stand only once. “Also recorded” adds a separate entry of the source.", "data": [{"substance": "B2B3-1: bispecific scFv antibody fusion: anti-ErbB3 scFv H3 and anti-ErbB2 scFv B1D2 joined by a modified human serum albumin (HSA) linker", "values": [{"measurement": "Ki67 expression compared to HSA treated tumors", "setting": "[1]", "result": "reduced expression pattern; also recorded: reduction"}, {"measurement": "levels of pErbB2", "setting": "[2]", "result": "reduced in a dose-dependent manner"}, {"measurement": "levels of pErbB3", "setting": "[2]", "result": "reduced in a dose-dependent manner"}, {"measurement": "tumor size reduction", "setting": "[3]", "result": "efficacious"}, {"measurement": "xenograft response in relation to ErbB2 expression levels", "setting": "[4]", "result": "correlates positively"}, {"measurement": "size of tumors formed by BT-474-M3 cells lacking expression of PTEN", "setting": "[5]", "result": "promoted a reduction"}, {"measurement": "sub-cellular location of p27^kip1", "setting": "[6]", "result": "translocated to the nucleus; also recorded: translocation of cell cycle inhibitor p27^kip1 to the nucleus"}, {"measurement": "blocking of binding to ErbB3-coated plates by soluble extracellular domains of EGFR, ErbB2, ErbB3 or ErbB4", "setting": "[7]", "result": "only soluble ErbB3 extracellular domain blocked; also recorded: binds specifically"}, {"measurement": "tumor size reduction", "setting": "[8]", "result": "efficacious"}, {"measurement": "AUC", "setting": "[9]; 5 mg/kg IV", "result": "1.58E+03", "unit": "hr-μg/ml"}, {"measurement": "Clearance", "setting": "[9]; 5 mg/kg IV", "result": 3.19, "unit": "mL/h/kg"}, {"measurement": "T½β", "setting": "[9]; 5 mg/kg IV, 5 mg/kg", "result": "17 h and 16.9 h"}, {"measurement": "AUC", "setting": "[9]; 15 mg/kg IV", "result": "6.10E+03", "unit": "hr-μg/ml"}, {"measurement": "Clearance", "setting": "[9]; 15 mg/kg IV", "result": 2.47, "unit": "mL/h/kg"}, {"measurement": "T½β", "setting": "[9]; 15 mg/kg IV, 15 mg/kg", "result": "16 h and 16.2 h"}, {"measurement": "AUC", "setting": "[9]; 30 mg/kg IV", "result": "1.18E+04", "unit": "hr-μg/ml"}, {"measurement": "Clearance", "setting": "[9]; 30 mg/kg IV", "result": 2.54, "unit": "mL/h/kg"}, {"measurement": "T½β", "setting": "[9]; 30 mg/kg IV, 30 mg/kg", "result": "23 h and 22.6 h"}, {"measurement": "AUC", "setting": "[9]; 45 mg/kg IV", "result": "1.84E+04", "unit": "hr-μg/ml"}, {"measurement": "Clearance", "setting": "[9]; 45 mg/kg IV", "result": 2.46, "unit": "mL/h/kg"}, {"measurement": "T½β", "setting": "[9]; 45 mg/kg IV, 45 mg/kg", "result": "18 h and 17.5 h"}, {"measurement": "dose-exposure relationship", "setting": "[9]; nu/nu mice, 5, 15, 30 and 45 mg/kg bolus doses", "result": "linear increase in overall exposure"}, {"measurement": "inhibition of HRG induced ErbB3 phosphorylation", "setting": "[10]", "result": "inhibits"}, {"measurement": "ErbB3 and phospho-ErbB3 precipitated by the anti-ErbB2 antibody", "setting": "[11]", "result": "crosslinks ErbB2 to ErbB3"}, {"measurement": "tumor size reduction", "setting": "[12]", "result": "efficacious"}, {"measurement": "levels of Cyclin D1 compared to untreated cells", "setting": "[13]", "result": "decrease"}, {"measurement": "potency of inhibition of ligand-induced phosphorylation of ErbB3", "setting": "ErbB3", "result": "sub-nanomolar"}, {"measurement": "xenograft response", "setting": "[14]", "result": "no response; also recorded: non-responder"}, {"measurement": "nuclear staining for p27^kip1 compared to HSA control tumors", "setting": "[15]", "result": "Increased nuclear staining; also recorded: translocation of p27^kip1 to the nucleus"}, {"measurement": "tumor size reduction", "setting": "[16]", "result": "efficacious"}, {"measurement": "pAKT in tumors (densitometry of Western blot)", "setting": "[17]", "result": "significantly less pAKT; also recorded: able to inhibit phosphorylation"}]}]}
